{"source": "patent US20220378887A1", "about": "(GENOIMMUNE THERAPEUTICS, published 2022)", "data": [{"target": "T1, HLA-A*11:01 (MHC-I molecules on the surfaces of T2 cells) (human)", "T1 construct": "It only names the antibody against 'the corresponding HLA typing (HLA-A*11:01)'; also called HLA molecules", "experiment": "T2 cell MHC-I stabilisation assay, flow cytometry with FITC anti-HLA-A*11:01 antibody", "values": [{"binder": "RTIEQLTLK (Synthesized mutant neoantigen peptide; also called high-frequency mutant polypeptide)", "note": "[RTIEQLTLK polypeptide (ARHGEF11; SEQ ID NO: 8)]", "FI (fluorescence index)": 1.57}, {"binder": "VVVGAGDVGK (Synthesized mutant KRAS neoantigen peptide; also called high-frequency mutant polypeptide)", "note": "[VVVGAGDVGK polypeptide (KRAS; SEQ ID NO: 15)]", "FI (fluorescence index)": 1.66}, {"binder": "TTAPFLSGK (Synthesized mutant neoantigen peptide; also called high-frequency mutant polypeptide)", "note": "[TTAPFLSGK polypeptide (CTNNB1; SEQ ID NO: 9)]", "FI (fluorescence index)": 1.02}, {"binder": "STIDESPIFK (Synthesized mutant neoantigen peptide; also called high-frequency mutant polypeptide)", "note": "[STIDESPIFK polypeptide (GLCE; SEQ ID NO: 7)]", "FI (fluorescence index)": 4.09}]}]}
